The supplement of paper PMC10065799, “High-throughput profiling of sequence recognition by tyrosine kinases and SH2 domains using bacterial peptide display” (eLife, 2023)

Assays:
AncSZ = assay: phosphorylation enrichment, bacterial display (enrichment ratio); higher = better substrate or ligand; peptides without Tyr show the background
EPHB1 = EPHB1 (UniProt P54762); assay: as above
EPHB2 = EPHB2 (UniProt P29323); assay: as above
FGFR1 = FGFR1 (UniProt P11362); assay: as above
FGFR3 = FGFR3 (UniProt P22607); assay: as above
Chain of FGFR3 (P22607 whole entry, looked up): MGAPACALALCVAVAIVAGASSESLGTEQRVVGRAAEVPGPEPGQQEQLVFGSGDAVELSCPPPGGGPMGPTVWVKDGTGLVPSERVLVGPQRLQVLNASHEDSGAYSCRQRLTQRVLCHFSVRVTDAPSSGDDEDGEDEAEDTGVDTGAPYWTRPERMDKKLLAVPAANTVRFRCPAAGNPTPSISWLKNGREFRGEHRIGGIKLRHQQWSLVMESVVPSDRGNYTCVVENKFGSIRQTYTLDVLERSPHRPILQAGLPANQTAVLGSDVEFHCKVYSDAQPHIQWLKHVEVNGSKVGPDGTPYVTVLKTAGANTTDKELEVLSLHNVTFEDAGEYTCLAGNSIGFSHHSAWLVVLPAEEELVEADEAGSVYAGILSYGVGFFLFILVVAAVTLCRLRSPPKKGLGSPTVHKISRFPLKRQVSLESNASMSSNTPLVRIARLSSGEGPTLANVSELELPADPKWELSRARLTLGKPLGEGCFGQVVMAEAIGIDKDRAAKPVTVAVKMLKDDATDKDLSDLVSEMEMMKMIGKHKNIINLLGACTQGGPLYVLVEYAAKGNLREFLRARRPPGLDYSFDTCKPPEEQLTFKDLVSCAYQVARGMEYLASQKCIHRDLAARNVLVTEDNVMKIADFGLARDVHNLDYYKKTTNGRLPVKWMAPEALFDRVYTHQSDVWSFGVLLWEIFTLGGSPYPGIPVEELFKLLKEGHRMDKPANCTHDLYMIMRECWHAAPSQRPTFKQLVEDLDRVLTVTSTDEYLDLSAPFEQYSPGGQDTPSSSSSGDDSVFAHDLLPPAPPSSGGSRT

Fer (mouse) = assay: as above
Fes = Fes (UniProt P07332); assay: as above
Fyn = Fyn (UniProt P06241); assay: as above
Chain of Fyn (P06241 whole entry, looked up): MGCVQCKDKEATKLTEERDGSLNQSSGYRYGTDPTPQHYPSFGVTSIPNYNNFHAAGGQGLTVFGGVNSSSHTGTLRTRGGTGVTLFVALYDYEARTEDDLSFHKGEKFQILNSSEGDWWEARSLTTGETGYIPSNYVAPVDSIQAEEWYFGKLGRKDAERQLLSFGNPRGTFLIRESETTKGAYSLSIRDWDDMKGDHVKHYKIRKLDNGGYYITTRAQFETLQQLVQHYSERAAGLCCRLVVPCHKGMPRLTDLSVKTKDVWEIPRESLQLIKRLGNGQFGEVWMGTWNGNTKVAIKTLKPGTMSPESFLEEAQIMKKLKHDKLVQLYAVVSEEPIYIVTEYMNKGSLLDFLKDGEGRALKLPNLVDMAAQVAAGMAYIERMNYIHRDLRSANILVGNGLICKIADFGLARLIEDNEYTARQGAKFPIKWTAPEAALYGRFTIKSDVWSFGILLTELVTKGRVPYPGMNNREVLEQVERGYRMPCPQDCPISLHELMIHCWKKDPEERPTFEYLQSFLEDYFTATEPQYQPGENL

Hck = Hck (UniProt P08631); assay: as above
Chain of Hck (P08631 whole entry, looked up): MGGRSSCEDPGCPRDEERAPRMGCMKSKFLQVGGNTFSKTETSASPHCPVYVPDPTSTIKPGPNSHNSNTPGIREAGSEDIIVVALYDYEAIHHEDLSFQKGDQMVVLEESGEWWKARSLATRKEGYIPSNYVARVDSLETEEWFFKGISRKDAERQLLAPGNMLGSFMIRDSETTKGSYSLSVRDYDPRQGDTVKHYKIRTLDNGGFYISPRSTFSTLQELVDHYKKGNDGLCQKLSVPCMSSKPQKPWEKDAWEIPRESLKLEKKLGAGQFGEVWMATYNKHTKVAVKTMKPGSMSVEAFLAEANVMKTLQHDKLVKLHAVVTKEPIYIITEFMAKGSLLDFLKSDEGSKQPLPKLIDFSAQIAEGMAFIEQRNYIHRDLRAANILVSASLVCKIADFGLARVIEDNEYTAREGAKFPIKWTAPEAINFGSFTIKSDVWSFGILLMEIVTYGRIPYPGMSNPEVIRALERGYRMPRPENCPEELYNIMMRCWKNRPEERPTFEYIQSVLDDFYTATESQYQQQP

Jak2 = Jak2 (UniProt O60674); assay: as above
Chain of Jak2 (O60674 whole entry, looked up): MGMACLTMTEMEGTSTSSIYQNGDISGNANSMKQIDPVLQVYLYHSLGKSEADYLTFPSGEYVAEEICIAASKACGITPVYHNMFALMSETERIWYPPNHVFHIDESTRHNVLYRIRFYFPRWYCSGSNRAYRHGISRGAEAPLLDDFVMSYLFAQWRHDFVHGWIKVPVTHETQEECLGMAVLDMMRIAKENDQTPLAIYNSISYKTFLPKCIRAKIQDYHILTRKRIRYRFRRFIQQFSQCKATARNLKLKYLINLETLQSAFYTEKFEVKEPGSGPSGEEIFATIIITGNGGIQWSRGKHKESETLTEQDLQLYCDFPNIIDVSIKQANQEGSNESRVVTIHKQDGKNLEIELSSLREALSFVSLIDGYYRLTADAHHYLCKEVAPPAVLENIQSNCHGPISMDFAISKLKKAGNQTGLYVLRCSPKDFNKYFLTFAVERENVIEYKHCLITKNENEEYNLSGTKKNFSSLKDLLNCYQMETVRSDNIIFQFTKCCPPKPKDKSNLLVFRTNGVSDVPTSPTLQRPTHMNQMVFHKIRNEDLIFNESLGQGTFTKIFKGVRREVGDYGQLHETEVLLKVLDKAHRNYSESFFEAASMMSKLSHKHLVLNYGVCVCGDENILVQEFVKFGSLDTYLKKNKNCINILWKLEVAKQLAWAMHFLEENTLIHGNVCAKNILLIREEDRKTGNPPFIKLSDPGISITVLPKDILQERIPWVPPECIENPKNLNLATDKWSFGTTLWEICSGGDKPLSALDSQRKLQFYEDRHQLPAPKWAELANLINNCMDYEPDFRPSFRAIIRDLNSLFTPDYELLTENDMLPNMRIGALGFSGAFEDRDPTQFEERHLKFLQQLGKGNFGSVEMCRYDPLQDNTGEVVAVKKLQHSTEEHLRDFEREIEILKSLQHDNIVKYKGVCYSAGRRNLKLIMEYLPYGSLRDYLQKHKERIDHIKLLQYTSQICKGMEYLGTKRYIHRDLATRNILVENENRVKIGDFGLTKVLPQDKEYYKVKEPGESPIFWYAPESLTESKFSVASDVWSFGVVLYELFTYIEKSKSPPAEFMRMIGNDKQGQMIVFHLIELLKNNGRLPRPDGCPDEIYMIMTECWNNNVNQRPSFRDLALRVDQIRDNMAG

MERTK = MERTK (UniProt Q12866); assay: as above
c-Abl (mouse) = assay: as above
c-Src = assay: as above
Grb2 SH2 = Grb2 SH2 (UniProt P62993); assay: SH2 binding enrichment of the phosphorylated peptide, bacterial display (enrichment ratio); higher = better substrate or ligand; peptides without Tyr show the background
SHP2-C SH2 = assay: as above
c-Src SH2 = assay: as above
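For SH2 binding enrichment of the phosphorylated peptide, bacterial display in this document: peptide library displayed on the E. coli surface as eCPX fusions, selected cells deep-sequenced, score is each peptide's frequency after selection divided by its frequency in the input.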
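For phosphorylation enrichment, bacterial display in this document: 11-residue human phosphosite peptides and single-mutation variants displayed on the E. coli surface, counted by deep sequencing, each peptide's frequency after selection divided by its frequency in the unselected input library; frequency after pTyr selection over input frequency; kinase dosed for 20-30% of maximal phosphorylation in three min.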

Chain of EPHB2 (P29323 whole entry, looked up): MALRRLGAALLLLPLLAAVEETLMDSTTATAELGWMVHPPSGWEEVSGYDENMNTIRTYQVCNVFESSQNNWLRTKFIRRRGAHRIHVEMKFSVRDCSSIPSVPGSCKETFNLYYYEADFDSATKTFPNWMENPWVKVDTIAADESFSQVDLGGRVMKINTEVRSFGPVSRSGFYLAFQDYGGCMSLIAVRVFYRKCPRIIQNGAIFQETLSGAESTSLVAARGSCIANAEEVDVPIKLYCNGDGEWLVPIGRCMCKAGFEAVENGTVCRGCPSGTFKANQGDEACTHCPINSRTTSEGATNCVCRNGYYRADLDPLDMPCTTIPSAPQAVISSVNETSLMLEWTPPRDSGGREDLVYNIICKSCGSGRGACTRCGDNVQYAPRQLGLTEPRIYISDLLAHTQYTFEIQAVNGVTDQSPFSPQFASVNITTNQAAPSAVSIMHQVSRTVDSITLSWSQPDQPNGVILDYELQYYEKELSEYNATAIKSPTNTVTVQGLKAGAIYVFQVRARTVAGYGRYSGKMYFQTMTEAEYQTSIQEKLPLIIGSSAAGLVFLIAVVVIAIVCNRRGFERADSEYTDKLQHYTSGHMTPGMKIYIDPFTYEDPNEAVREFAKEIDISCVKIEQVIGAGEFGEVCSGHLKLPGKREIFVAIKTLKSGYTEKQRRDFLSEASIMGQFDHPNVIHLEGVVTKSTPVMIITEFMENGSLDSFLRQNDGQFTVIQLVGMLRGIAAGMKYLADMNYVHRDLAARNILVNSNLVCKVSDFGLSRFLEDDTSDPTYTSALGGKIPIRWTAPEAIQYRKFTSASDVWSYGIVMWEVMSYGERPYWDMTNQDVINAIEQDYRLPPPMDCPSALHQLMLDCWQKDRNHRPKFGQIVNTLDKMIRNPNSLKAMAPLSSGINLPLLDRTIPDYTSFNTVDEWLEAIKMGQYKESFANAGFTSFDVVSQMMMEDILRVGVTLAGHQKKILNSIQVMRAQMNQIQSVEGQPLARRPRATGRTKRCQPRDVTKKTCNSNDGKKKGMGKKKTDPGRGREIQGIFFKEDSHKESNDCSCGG
Chain of FGFR1 (P11362 whole entry, looked up): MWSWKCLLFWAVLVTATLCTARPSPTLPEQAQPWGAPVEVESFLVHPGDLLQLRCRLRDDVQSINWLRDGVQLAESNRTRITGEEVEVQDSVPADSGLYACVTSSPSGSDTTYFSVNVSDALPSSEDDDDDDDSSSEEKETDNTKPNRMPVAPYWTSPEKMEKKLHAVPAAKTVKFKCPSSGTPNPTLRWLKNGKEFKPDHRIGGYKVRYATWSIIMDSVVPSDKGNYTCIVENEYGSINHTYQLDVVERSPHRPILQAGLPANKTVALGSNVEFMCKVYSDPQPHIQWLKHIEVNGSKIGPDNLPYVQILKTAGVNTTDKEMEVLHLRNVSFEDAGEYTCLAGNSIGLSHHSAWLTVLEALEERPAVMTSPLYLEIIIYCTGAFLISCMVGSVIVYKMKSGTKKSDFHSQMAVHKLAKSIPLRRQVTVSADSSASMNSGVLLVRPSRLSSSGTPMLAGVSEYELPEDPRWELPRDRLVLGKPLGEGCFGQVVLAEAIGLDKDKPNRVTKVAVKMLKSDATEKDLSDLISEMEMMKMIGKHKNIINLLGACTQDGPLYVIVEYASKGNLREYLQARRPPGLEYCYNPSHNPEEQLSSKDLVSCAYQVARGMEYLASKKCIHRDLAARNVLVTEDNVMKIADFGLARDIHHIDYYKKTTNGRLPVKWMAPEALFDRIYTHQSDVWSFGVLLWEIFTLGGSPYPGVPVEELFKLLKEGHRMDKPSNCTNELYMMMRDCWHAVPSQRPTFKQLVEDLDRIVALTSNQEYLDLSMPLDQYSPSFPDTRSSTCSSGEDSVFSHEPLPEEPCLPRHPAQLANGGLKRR

SH2 binding enrichment (Grb2 SH2)	SH2 binding enrichment (SHP2-C SH2)	SH2 binding enrichment (c-Src SH2)	Sequence	phosphorylation enrichment (AncSZ)	phosphorylation enrichment (EPHB1)	phosphorylation enrichment (EPHB2)	phosphorylation enrichment (FGFR1)	phosphorylation enrichment (FGFR3)	phosphorylation enrichment (Fer (mouse))	phosphorylation enrichment (Fes)	phosphorylation enrichment (Fyn)	phosphorylation enrichment (Hck)	phosphorylation enrichment (Jak2)	phosphorylation enrichment (MERTK)	phosphorylation enrichment (c-Abl (mouse))	phosphorylation enrichment (c-Src)
0.723	0.909	0.437	THLAPYSDELR [APOA1_Y190]	0.722	0.51	0.582	0.46	0.594	0.442	0.968	0.51	0.481	0.688	0.467	0.521	0.434
0.845	0.575	0.414	TIQMMYGCDVG [HLA-A_Y123_I121M]	1.22	0.718	0.555	0.561	0.987	0.532	1.38	0.525	0.501	1.31	0.408	0.822	0.513
1.17	1.13	0.717	TLGPFYPSRLF [CRYAA_Y18]	0.795	0.47	0.493	0.581	0.586	0.464	0.784	0.459	0.428	0.668	0.43	0.63	0.44
0.941	0.883	0.515	TLQVMYGCDVG [HLA-B_Y123_S121V]	1.1	0.564	0.56	0.596	0.862	0.509	1.23	0.508	0.593	1.1	0.56	0.849	0.589
0.967	0.986	0.81	TNIKRYHIAKV [HARS1_Y150]	0.408	0.301	0.322	0.301	0.328	0.278	0.553	0.379	0.264	0.43	0.358	0.375	0.348
0.977	0.894	0.545	TQFWRYFAGNL [SLC25A5_Y112_L111R]	0.918	0.6	0.589	0.494	0.655	0.351	1.05	0.509	0.493	0.951	0.433	1.55	0.489
0.742	0.866	0.565	TSGVVYKARNK [CDK2_Y19_Y15S]	0.53	0.392	0.358	0.354	0.447	0.519	0.661	0.359	0.462	0.427	0.479	0.51	0.516
0.811	0.696	0.567	TSNQEYLDVSM [FGFR1_Y766_L769V]	1.15	0.866	0.681	1.24	1.05	0.561	1.06	0.504	0.56	0.958	0.441	0.684	0.415
0.999	0.759	0.672	TSYQMYDKGLV [IARS2_Y231_F227S]	0.986	0.468	0.665	0.496	0.568	0.405	0.769	0.604	1.13	0.957	0.463	0.432	0.54
0.897	2.3	2.12	TTPAVYARVAK [CTRB2_Y246]	0.49	0.594	0.505	0.436	0.436	0.383	0.583	1.28	2.77	0.464	0.529	1.04	2.23
0.891	26.3	19.8	TVSRPYSFIEF [SEC22B_Y110]	0.746	0.527	0.403	3.02	2.19	11.3	1.12	0.993	0.705	0.848	6.03	0.639	3.15
0.633	0.68	1.53	TVSTGYTQPQP [SARG_Y259_R258G]	0.675	0.378	0.374	0.523	0.629	0.513	0.64	0.442	0.47	0.508	0.371	0.511	0.479
0.748	0.696	0.556	TYEPNYGTVKQ [RAPGEF6_Y1447]	0.864	1.54	5.21	0.553	0.659	2.44	0.667	2.21	1.66	0.47	0.644	1.2	1.44
0.803	0.785	0.589	TYEPNYGTVKR [RAPGEF6_Y1447_Q1452R]	0.567	1.34	3.31	0.391	0.43	1.65	0.614	4.41	3.66	0.604	0.868	0.656	3.06
0.983	0.955	1.16	VATRWYQSPEL [CDKL5_Y177_R178Q]	1	0.508	0.774	0.88	0.754	0.531	0.832	0.43	0.578	0.566	0.679	0.512	0.443
0.971	0.731	1.94	VATRWYWSPEL [CDKL5_Y177_R178W]	1.06	4.61	3.81	5.92	5.13	0.512	1.15	0.464	0.532	1.14	6.3	0.771	0.647
0.979	0.697	0.586	VCDSDYSASRW [LRP5_Y1552]	1.16	0.691	0.877	0.449	0.684	0.455	1.02	0.603	0.518	0.731	0.382	0.737	0.518
